Laboratory results reported in paper PMC2958839, “Multiple FadD Acyl-CoA Synthetases Contribute to Differential Fatty Acid Degradation and Virulence in Pseudomonas aeruginosa” (PLoS ONE, 2010).

Tests used:
Test in all cases: purified protein
Conditions in all cases: 5 mM ATP, 0.5 mM CoASH, 30-300 µM FA, 10 mM MgCl2, 0.1% Triton X-100, pH 7.2, 37°C, printed unit mM conflicts with printed kcat/Km and FA range (implies µM)
CCCCCCCCCCCCCCCC(=O)O = system: CCCCCCCCCCCCCCCC(=O)O
CCCCCCCC(=O)O = system: CCCCCCCC(=O)O
CCCCCCCCCCCCCC(=O)O = system: CCCCCCCCCCCCCC(=O)O
CCCC(=O)O = system: CCCC(=O)O
From the text: (§1) DTNB (Ellman) assay of CoASH consumption, A412, Hanes-Woolf plot on FadD1
CCCCCC(=O)O = system: CCCCCC(=O)O
CCCCCCCCCCCC(=O)O = system: CCCCCCCCCCCC(=O)O
CCCCCCCCCC(=O)O = system: CCCCCCCCCC(=O)O
From the text: as §1

Substance | kcat (CCCCCCCCCCCCCCCC(=O)O) | kcat (CCCCCCCC(=O)O) | kcat (CCCCCCCCCCCCCC(=O)O) | kcat (CCCC(=O)O) | kcat (CCCCCC(=O)O) | kcat (CCCCCCCCCCCC(=O)O) | kcat (CCCCCCCCCC(=O)O)
FadD1 (Pseudomonas aeruginosa PAO1) | 0.158 s⁻¹ | 0.128 s⁻¹ | 0.134 s⁻¹ | 0.141 s⁻¹ | 0.137 s⁻¹ | 0.134 s⁻¹ | 0.119 s⁻¹
FadD2 (Pseudomonas aeruginosa PAO1) | 0.102 s⁻¹ | 0.210 s⁻¹ | 0.112 s⁻¹ |  | 0.164 s⁻¹ | 0.141 s⁻¹ | 
